Target: NSTTR, artificially mutated variant of TTR carrying the double mutation N99R/S100R
Test: SEC-MALS

stoichiometry N: 4
Substance: NSTTR, artificially mutated variant of TTR carrying the double mutation N99R/S100R (natural protein)
